Source: US6083712

Molecular target: biotin synthase (Escherichia coli) (UniProt P12996)

| Substance | pmol of biotin produced [pmol] |
| --- | --- |
| ferredoxin(flavodoxin)-NADP+ reductase (from UniProt P28861) (enzyme) | 800 |
| flavodoxin (from UniProt P61949) | 800 |
